The source of these data is IntAct's records for PubMed 12839993.

B1: Cullin-1 (Arabidopsis thaliana (Mouse-ear cress)), Q94AH6 (parent)
chain: MERKTIDLEQGWDYMQTGITKLKRILEGLNEPAFDSEQYMMLYTTIYNMCTQKPPHDYSQQLYDKYREAFEEYINSTVLPALREKHDEFMLRELFKRWSNHKVMVRWLSRFFYYLDRYFIARRSLPPLNEVGLTCFRDLVYNELHSKVKQAVIALVDKEREGEQIDRALLKNVLDIYVEIGMGQMERYEEDFESFMLQDTSSYYSRKASSWIQEDSCPDYMLKSEECLKKERERVAHYLHSSSEPKLVEKVQHELLVVFASQLLEKEHSGCRALLRDDKVDDLSRMYRLYHKILRGLEPVANIFKQHVTAEGNALVQQAEDTATNQVANTASVQEQVLIRKVIELHDKYMVYVTECFQNHTLFHKALKEAFEIFCNKTVAGSSSAELLATFCDNILKKGGSEKLSDEAIEDTLEKVVKLLAYISDKDLFAEFYRKKLARRLLFDRSANDDHERSILTKLKQQCGGQFTSKMEGMVTDLTLARENQNSFEDYLGSNPAANPGIDLTVTVLTTGFWPSYKSFDINLPSEMIKCVEVFKGFYETKTKHRKLTWIYSLGTCHINGKFDQKAIELIVSTYQAAVLLLFNTTDKLSYTEILAQLNLSHEDLVRLLHSLSCAKYKILLKEPNTKTVSQNDAFEFNSKFTDRMRRIKIPLPPVDERKKVVEDVDKDRRYAIDAAIVRIMKSRKVLGHQQLVSECVEQLSRMFKPDIKAIKKRMEDLITRDYLERDKENPNMFRYLA

In test [1] the parent is B1. The settings on record: with skp1a_arath SKP1A.
Variants of B1 are the subject of the test “iaa7_arath IAA7, Q38825”. The settings on record: with iaa7_arath IAA7, Q38825.
Sequence of iaa7_arath IAA7, Q38825 (Q38825 whole entry): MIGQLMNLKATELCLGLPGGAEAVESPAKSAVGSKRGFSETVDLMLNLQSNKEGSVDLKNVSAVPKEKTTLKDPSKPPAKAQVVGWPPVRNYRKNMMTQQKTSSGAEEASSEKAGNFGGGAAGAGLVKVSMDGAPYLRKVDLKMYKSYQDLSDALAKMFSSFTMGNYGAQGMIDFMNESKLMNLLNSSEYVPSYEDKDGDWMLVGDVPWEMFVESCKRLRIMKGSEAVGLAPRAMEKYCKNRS

On to F112V, for which the “effect of a mutation on the interaction” value in test [1] is listed as “decreasing interaction”; in the test with iaa7_arath IAA7, Q38825, “decreasing interaction”.
As for F112I, the “effect of a mutation on the interaction” value is reported as “decreasing interaction” in test [1] and “decreasing interaction” in the test with iaa7_arath IAA7, Q38825.
